Biological target: T1, wildtype (WT) HA trimer from A/New Caledonia/20/1999 (H1 1999 NC), soluble trimeric format (influenza A virus A/New …, UniProt Q6WG00)
T1 construct: also called wildtype HA
Experiment: ELISA
Details: both partners purified

B1: CH65, HA receptor binding site specific monoclonal antibody (antibody, V domains shown)
VH: EVQLVQSGAEVKKPGASVKVSCKASGYTFTDYHINWVRQAPGQGLEWMGWIHPNSGDTNYAQKFQGWVTMTRDTAISTAYMEVNGLKSDDTAVYYCARGGLEPRSVDYYYYGMDVWGQGTTVTVSS
VL: SVLTQPPSVSVAPGQTARITCGGNDIGRKSVHWNQQKPGQAPVLVVCYDSDRPSGIPERFSGSNSGNTATLTISRVEAGDEADYYCQVWDSSSDHVIFGGGTKLTVL
B1: binds.
